As usually defined, the stoichiometry N is a count of units in the complex or per binding partner.

Data set [1] deals with the molecule itself. The data set is described as follows: SEC-MALS; 250 ul of purified TPR-like domain at 1-3 mg/ml on Superdex 200 10/300; 20 mM Tris-HCl pH 6.8, 0.2 M NaCl, 5% glycerol, 1 mM DTT; 0.5 ml/min. Background: Size exclusion chromatography separates by hydrodynamic size, large species first.
Data set [2] addresses 80S ribosomes, P05388;P63244. Kind of data set: sedimentation with native ribosomes (80S fraction), immunoblot quantification. The note with it: chain shown with the change; HEK293 cells expressing Xpress-tagged G5845-1508 proteins; parent: est. 1.0; read off a plot.

B1: Gemin5 TPR-like dimerization domain R1016C (domain or fragment, human, UniProt Q8TEQ6 845-1097, looked up)
chain: ARSLLPLSTSLDHRSKEELHQDCLVLATAKHSRELNEDVSADVEERFHLGLFTDRATLYRMIDIEGKGHLENGHPELFHQLMLWKGDLKGVLQTAAERGELTDNLVAMAPAAGYHVWLWAVEAFAKQLCFQDQYVKAASHLLSIHKVYEAVELLKSNHFYREAIAIAKARLCPEDPVLKDLYLSWGTVLERDGHYAVAAKCYLGATCAYDAAKVLAKKGDAASLRTAAELAAIVGEDELSASLALRCAQELLL
notes: Tag cut by PreScission protease; also called TPR-like R1016C; source: E. coli BL21-Rosetta (DE3) pLysS, purified (HisTrap, tag cleavage, SEC in 0.2 M NaCl); not shown: His6, N-terminal, cleaved; MBP, N-terminal, cleaved
As to B1, in data set [1], the “stoichiometry N” value came out at 2.

B2: Gemin5 TPR-like dimerization domain D1019E (domain or fragment, human, UniProt Q8TEQ6 845-1097, looked up)
chain: ARSLLPLSTSLDHRSKEELHQDCLVLATAKHSRELNEDVSADVEERFHLGLFTDRATLYRMIDIEGKGHLENGHPELFHQLMLWKGDLKGVLQTAAERGELTDNLVAMAPAAGYHVWLWAVEAFAKQLCFQDQYVKAASHLLSIHKVYEAVELLKSNHFYREAIAIAKARLRPEEPVLKDLYLSWGTVLERDGHYAVAAKCYLGATCAYDAAKVLAKKGDAASLRTAAELAAIVGEDELSASLALRCAQELLL
notes: Tag cut by PreScission protease; also called TPR-like D1019E; source: E. coli BL21-Rosetta (DE3) pLysS, purified (HisTrap, tag cleavage, SEC in 0.2 M NaCl); not shown: His6, N-terminal, cleaved; MBP, N-terminal, cleaved
In the case of B2, the “stoichiometry N” value in data set [1] is 2.

B3: Xpress-G5_(845-1508)-WT, Q8TEQ6 D1019E (protein)
chain: ARSLLPLSTSLDHRSKEELHQDCLVLATAKHSRELNEDVSADVEERFHLGLFTDRATLYRMIDIEGKGHLENGHPELFHQLMLWKGDLKGVLQTAAERGELTDNLVAMAPAAGYHVWLWAVEAFAKQLCFQDQYVKAASHLLSIHKVYEAVELLKSNHFYREAIAIAKARLRPEEPVLKDLYLSWGTVLERDGHYAVAAKCYLGATCAYDAAKVLAKKGDAASLRTAAELAAIVGEDELSASLALRCAQELLLANNWVGAQEALQLHESLQGQRLVFCLLELLSRHLEEKQLSEGKSSSSYHTWNTGTEGPFVERVTAVWKSIFSLDTPEQYQEAFQKLQNIKYPSATNNTPAKQLLLHICHDLTLAVLSQQMASWDEAVQALLRAVVRSYDSGSFTIMQEVYSAFLPDGCDHLRDKLGDHQSPATPAFKSLEAFFLYGRLYEFWWSLSRPCPNSSVWVRAGHRTLSVEPSQQLDTASTEETDPETSQPEPNRPSELDLRLTEEGERMLSTFKELFSEKHASLQNSQRTVAEVQETLAEMIRQHQKSQLCKSTANGPDKNEPEVEAEQPLCSSQSQCKEEKNEPLSLPELTKRLTEANQRMAKFPESIKAWPFPDVLECCLVLLLIRSHFPGCLAQEMQQQAQELLQKYGNTKTYRRHCQTFCM
B3: the other: G5845-1508 intensity 80S/S30 in data set [2] turned out to be 0.46.

B4: Xpress-G5_(845-1508)-WT, Q8TEQ6 A951E (protein)
chain: ARSLLPLSTSLDHRSKEELHQDCLVLATAKHSRELNEDVSADVEERFHLGLFTDRATLYRMIDIEGKGHLENGHPELFHQLMLWKGDLKGVLQTAAERGELTDNLVEMAPAAGYHVWLWAVEAFAKQLCFQDQYVKAASHLLSIHKVYEAVELLKSNHFYREAIAIAKARLRPEDPVLKDLYLSWGTVLERDGHYAVAAKCYLGATCAYDAAKVLAKKGDAASLRTAAELAAIVGEDELSASLALRCAQELLLANNWVGAQEALQLHESLQGQRLVFCLLELLSRHLEEKQLSEGKSSSSYHTWNTGTEGPFVERVTAVWKSIFSLDTPEQYQEAFQKLQNIKYPSATNNTPAKQLLLHICHDLTLAVLSQQMASWDEAVQALLRAVVRSYDSGSFTIMQEVYSAFLPDGCDHLRDKLGDHQSPATPAFKSLEAFFLYGRLYEFWWSLSRPCPNSSVWVRAGHRTLSVEPSQQLDTASTEETDPETSQPEPNRPSELDLRLTEEGERMLSTFKELFSEKHASLQNSQRTVAEVQETLAEMIRQHQKSQLCKSTANGPDKNEPEVEAEQPLCSSQSQCKEEKNEPLSLPELTKRLTEANQRMAKFPESIKAWPFPDVLECCLVLLLIRSHFPGCLAQEMQQQAQELLQKYGNTKTYRRHCQTFCM
With B4, the other: G5845-1508 intensity 80S/S30 in data set [2] was 0.48.

B5: Xpress-G5_(845-1508)-WT, Q8TEQ6 R1016C (protein)
chain: ARSLLPLSTSLDHRSKEELHQDCLVLATAKHSRELNEDVSADVEERFHLGLFTDRATLYRMIDIEGKGHLENGHPELFHQLMLWKGDLKGVLQTAAERGELTDNLVAMAPAAGYHVWLWAVEAFAKQLCFQDQYVKAASHLLSIHKVYEAVELLKSNHFYREAIAIAKARLCPEDPVLKDLYLSWGTVLERDGHYAVAAKCYLGATCAYDAAKVLAKKGDAASLRTAAELAAIVGEDELSASLALRCAQELLLANNWVGAQEALQLHESLQGQRLVFCLLELLSRHLEEKQLSEGKSSSSYHTWNTGTEGPFVERVTAVWKSIFSLDTPEQYQEAFQKLQNIKYPSATNNTPAKQLLLHICHDLTLAVLSQQMASWDEAVQALLRAVVRSYDSGSFTIMQEVYSAFLPDGCDHLRDKLGDHQSPATPAFKSLEAFFLYGRLYEFWWSLSRPCPNSSVWVRAGHRTLSVEPSQQLDTASTEETDPETSQPEPNRPSELDLRLTEEGERMLSTFKELFSEKHASLQNSQRTVAEVQETLAEMIRQHQKSQLCKSTANGPDKNEPEVEAEQPLCSSQSQCKEEKNEPLSLPELTKRLTEANQRMAKFPESIKAWPFPDVLECCLVLLLIRSHFPGCLAQEMQQQAQELLQKYGNTKTYRRHCQTFCM
For B5, the other: G5845-1508 intensity 80S/S30 in data set [2] amounted to 0.51.

The values are drawn from PMC8989681, “Functional and structural deficiencies of Gemin5 variants associated with neurological disorders” (Life Science Alliance, 2022).
